The values below come from patent publication US20130089556A1 (SAMSUNG ELECTRONICS, published 2013).

Common to all, as to test: SPR (printed 'Biocare'), antibody immobilised on CM5 chip, c-Met injected at 100-0.39 nM
Test [1] deals with T1, human c-Met protein (R&D Systems) (human, UniProt P08581 25-932, limits assumed).
T1 construct: also called antigen
As to the method: Each of antibodies was immobilized to about 80˜110 RU on a CM5 chip, and the c-Met protein (which is an antigen) was injected at nine different concentrations within a range of about 100 nM to about 0.39 nM at a rate of 30 μl/min to obtain kₒₙ and koff values as illustrated in Table 2. KD values were calculated from the kₒₙ and koff values.

For test [2], the target named is T1, human c-Met protein (R&D Systems). As to the method:
Each of antibodies shown in Table 4 was immobilized to about 80˜110 RU on a CM5 chip. The c-Met protein was injected at nine different concentrations within a range of about 100 nM to about 0.39 nM at a rate of 30 μl/min to obtain kₒₙ and koff values as illustrated in Table 4. KD values were calculated from the kₒₙ and koff values.
This is another data set of the same source.

The target is the same in test [3]. As to the method:
Each of antibodies was immobilized to about 80-110 RU on a CM5 chip, and the c-Met protein was injected at nine different concentrations within a range of about 100 nM to about 0.39 nM at a rate of 30 μl/min to obtain kₒₙ and koff values as illustrated in Table 3. KD values were calculated from the kₒₙ and koff values.
The source holds these as a separate data set.

Like-named read-outs stand apart in the source and are kept apart here.

T1 sequence (P08581 25-932 limits assumed): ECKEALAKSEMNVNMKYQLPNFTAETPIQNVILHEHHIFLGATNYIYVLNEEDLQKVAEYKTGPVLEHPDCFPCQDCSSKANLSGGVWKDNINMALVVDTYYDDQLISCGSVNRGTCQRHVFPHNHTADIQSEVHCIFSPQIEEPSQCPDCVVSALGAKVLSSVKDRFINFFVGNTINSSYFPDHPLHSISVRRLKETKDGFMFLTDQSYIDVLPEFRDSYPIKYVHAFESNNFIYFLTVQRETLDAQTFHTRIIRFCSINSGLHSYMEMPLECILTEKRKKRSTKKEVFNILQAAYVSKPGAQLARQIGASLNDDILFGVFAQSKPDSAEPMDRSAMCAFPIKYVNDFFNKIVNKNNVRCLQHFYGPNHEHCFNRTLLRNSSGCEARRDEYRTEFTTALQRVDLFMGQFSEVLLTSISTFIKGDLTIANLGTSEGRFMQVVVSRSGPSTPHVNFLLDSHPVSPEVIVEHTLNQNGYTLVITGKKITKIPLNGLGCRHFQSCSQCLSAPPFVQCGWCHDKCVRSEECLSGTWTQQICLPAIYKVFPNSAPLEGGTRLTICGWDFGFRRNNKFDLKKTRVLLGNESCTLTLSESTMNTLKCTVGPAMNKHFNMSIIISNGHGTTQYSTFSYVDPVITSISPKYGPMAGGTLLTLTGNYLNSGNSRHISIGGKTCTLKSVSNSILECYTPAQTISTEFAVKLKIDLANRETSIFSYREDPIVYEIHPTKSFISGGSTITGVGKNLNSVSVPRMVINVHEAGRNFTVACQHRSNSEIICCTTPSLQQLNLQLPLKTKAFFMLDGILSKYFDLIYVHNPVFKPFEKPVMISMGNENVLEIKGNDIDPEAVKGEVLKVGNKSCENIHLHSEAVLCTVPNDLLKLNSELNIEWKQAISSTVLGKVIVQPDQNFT

B1: humanized antibody huAbF46-H1 (antibody, human IgG1, kappa, V domains shown)
VH: EVQLVESGGGLVQPGGSLRLSCAASGFTFTDYYMSWVRQAPGKGLEWLGFIRNKANGYTTEYSASVKGRFTISRDNSKNSLYLQMNSLKTEDTAVYYCARDNWFAYWGQGTLVTVSS
VL: DIVMTQSPDSLAVSLGERATINCKSSQSLLASGNQNNYLAWHQQKPGQPPKMLIIWASTRVSGVPDRFSGSGSGTDFTLTISSLQAEDVAVYYCQQSYSAPLTFGGGTKVEIKR
notes: also called hAbF46-H1
For orientation: Kd means the concentration at which binding is half-saturated. As a reminder, the koff is a measure of how fast the partners let go of each other. A low value points to slow dissociation. A word on the kon: it is the second-order rate constant of association. In the case of B1, in test [1], the Kd is 1.89 to 1.97 nM, the off-rate constant (koff) amounted to 0.000655 s⁻¹ and the kon was found to be 346000 M⁻¹ s⁻¹. Moreover, in test [2], the equilibrium dissociation constant (Kd) is 1.89 nM, the koff stood at 0.000655 s⁻¹ and the kon was 346000 M⁻¹ s⁻¹.

B2: huAbF46-H4-U7-HC6 (antibody)
heavy: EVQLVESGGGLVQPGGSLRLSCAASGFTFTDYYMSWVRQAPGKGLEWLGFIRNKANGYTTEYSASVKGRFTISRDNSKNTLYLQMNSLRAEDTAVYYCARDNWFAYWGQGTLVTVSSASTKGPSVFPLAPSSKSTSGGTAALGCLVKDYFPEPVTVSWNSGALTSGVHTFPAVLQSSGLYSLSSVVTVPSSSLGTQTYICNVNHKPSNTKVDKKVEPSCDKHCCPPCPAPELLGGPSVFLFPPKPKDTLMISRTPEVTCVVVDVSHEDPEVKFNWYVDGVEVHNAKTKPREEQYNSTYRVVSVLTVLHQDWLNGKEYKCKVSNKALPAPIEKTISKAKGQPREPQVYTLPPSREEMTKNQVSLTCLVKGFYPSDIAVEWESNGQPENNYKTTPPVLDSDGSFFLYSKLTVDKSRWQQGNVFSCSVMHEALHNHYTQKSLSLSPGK
light: DIQMTQSPSSLSASVGDRVTITCKSSQSLLASGNQNNYLAWHQQKPGKAPKMLIIWASTRVSGVPSRFSGSGSGTDFTLTISSLQPEDFATYYCQQSYSAPLTFGQGTKVEIKRTVAAPSVFIFPPSDEQLKSGTASVVCLLNNFYPREAKVQWKVDNALQSGNSQESVTEQDSKDSTYSLSSTLTLSKADYEKHKVYACEVTHQGLSSPVTKSFNRGEC
In test [2], B2 showed a Kd of 3.74 nM, a koff of 0.000981 s⁻¹ and a kon of 263000 M⁻¹ s⁻¹.

B3: humanized antibody huAbF46-H4 (antibody, human IgG1, kappa)
heavy: not shown
light: DIQMTQSPSSLSASVGDRVTITCKSSQSLLASGNQNNYLAWHQQKPGKAPKMLIIWASTRVSGVPSRFSGSGSGTDFTLTISSLQPEDFATYYCQQSYSAPLTFGQGTKVEIKRTVAAPSVFIFPPSDEQLKSGTASVVCLLNNFYPREAKVQWKVDNALQSGNSQESVTEQDSKDSTYSLSSTLTLSKADYEKHKVYACEVTHQGLSSPVTKSFNRGE
notes: also called hAbF46-H4
In test [1], B3 yielded a Kd of 2.05 to 2.39 nM, a koff of 0.000696 s⁻¹ and a kon of 339000 M⁻¹ s⁻¹. For the same molecule, in test [2], the dissociation constant (Kd) was determined as 2.39 nM, the koff stood at 0.000802 s⁻¹ and the kon amounted to 336000 M⁻¹ s⁻¹.

B4: chimeric antibody chAbF46 (antibody, human IgG1)
heavy: not shown
light: DILMTQSPSSLTVSAGEKVTMSCKSSQSLLASGNQNNYLAWHQQKPGRSPKMLIIWASTRVSGVPDRFIGSGSGTDFTLTINSVQAEDLAVYYCQQSYSAPLTFGAGTKLELKRTVAAPSVFIFPPSDEQLKSGTASVVCLLNNFYPREAKVQWKVDNALQSGNSQESVTEQDSKDSTYSLSSTLTLSKADYEKHKVYACEVTHQGLSSPVTKSFNRGEC
notes: Mouse AbF46 variable regions on human IgG1 constant regions
In test [1], B4 came in with a Kd of 1.01 to 1.42 nM, a koff of 0.000367 s⁻¹ and a kon of 363000 M⁻¹ s⁻¹. In test [3], this molecule showed an equilibrium dissociation constant (Kd) of 1.01 nM, a dissociation rate constant (koff) of 0.000367 s⁻¹ and an association rate constant (kon) of 363000 M⁻¹ s⁻¹.

B5: chAbF46-U6-HC8 (antibody, human IgG1)
heavy: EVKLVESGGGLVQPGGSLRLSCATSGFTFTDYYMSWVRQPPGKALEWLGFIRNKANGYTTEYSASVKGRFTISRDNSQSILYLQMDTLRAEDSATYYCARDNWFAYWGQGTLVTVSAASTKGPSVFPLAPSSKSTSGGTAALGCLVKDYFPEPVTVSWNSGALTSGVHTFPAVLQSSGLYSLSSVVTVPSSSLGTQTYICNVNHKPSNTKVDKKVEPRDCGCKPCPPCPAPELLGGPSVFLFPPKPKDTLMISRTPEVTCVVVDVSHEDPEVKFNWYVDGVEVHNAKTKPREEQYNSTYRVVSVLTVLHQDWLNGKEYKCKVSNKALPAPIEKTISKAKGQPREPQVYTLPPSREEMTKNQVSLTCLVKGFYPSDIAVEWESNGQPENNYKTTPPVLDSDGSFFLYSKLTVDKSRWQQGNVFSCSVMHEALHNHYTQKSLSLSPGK
light: DILMTQSPSSLTVSAGEKVTMSCKSSQSLLASGNQNNYLAWHQQKPGRSPKMLIIWASTRVSGVPDRFIGSGSGTDFTLTINSVQAEDLAVYYCQQSYSAPLTFGAGTKLELKRTVAAPSVFIFPPSDEQLKSGTASVVCLLNNFYPREAKVQWKVDNALQSGNSQESVTEQDSKDSTYSLSSTLTLSKADYEKHKVYACEVTHQGLSSPVTKSFNRGEC
Regarding B5, in test [3], the equilibrium dissociation constant (Kd) came out at 1.34 nM, the koff came out at 0.000626 s⁻¹ and the kon amounted to 469000 M⁻¹ s⁻¹.

B6: chAbF46-U3-HC9 (antibody, human IgG1)
heavy: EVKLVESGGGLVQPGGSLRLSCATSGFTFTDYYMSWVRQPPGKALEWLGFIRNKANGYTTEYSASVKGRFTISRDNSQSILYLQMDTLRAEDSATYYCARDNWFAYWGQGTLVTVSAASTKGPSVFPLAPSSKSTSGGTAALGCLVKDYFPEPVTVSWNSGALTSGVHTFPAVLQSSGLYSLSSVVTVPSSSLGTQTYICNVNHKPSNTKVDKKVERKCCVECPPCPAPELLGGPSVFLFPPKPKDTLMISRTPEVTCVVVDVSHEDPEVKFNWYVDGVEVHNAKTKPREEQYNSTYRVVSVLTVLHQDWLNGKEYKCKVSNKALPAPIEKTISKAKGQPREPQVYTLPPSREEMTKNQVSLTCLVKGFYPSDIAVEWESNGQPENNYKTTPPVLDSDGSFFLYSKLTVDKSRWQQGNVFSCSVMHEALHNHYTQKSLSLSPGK
light: DILMTQSPSSLTVSAGEKVTMSCKSSQSLLASGNQNNYLAWHQQKPGRSPKMLIIWASTRVSGVPDRFIGSGSGTDFTLTINSVQAEDLAVYYCQQSYSAPLTFGAGTKLELKRTVAAPSVFIFPPSDEQLKSGTASVVCLLNNFYPREAKVQWKVDNALQSGNSQESVTEQDSKDSTYSLSSTLTLSKADYEKHKVYACEVTHQGLSSPVTKSFNRGEC
In test [3], B6 showed a Kd of 1.38 nM, a koff of 0.000554 s⁻¹ and a kon of 400000 M⁻¹ s⁻¹.

B7: chAbF46-U7-HC6 (antibody, human IgG1)
heavy: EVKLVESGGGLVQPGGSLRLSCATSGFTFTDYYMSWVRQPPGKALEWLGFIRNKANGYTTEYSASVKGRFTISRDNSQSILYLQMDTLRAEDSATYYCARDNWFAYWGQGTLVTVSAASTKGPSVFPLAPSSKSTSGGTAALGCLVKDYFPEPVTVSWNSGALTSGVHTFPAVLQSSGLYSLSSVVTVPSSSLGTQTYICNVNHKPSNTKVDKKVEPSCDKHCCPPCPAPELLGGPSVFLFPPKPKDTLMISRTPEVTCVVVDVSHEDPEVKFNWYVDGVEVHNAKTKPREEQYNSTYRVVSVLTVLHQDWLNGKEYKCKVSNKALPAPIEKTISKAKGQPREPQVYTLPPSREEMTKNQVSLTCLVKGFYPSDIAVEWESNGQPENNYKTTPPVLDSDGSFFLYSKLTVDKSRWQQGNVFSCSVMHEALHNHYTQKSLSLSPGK
light: DILMTQSPSSLTVSAGEKVTMSCKSSQSLLASGNQNNYLAWHQQKPGRSPKMLIIWASTRVSGVPDRFIGSGSGTDFTLTINSVQAEDLAVYYCQQSYSAPLTFGAGTKLELKRTVAAPSVFIFPPSDEQLKSGTASVVCLLNNFYPREAKVQWKVDNALQSGNSQESVTEQDSKDSTYSLSSTLTLSKADYEKHKVYACEVTHQGLSSPVTKSFNRGEC
Turning to B7, in test [3], the dissociation constant (Kd) was 1.66 nM, the koff stood at 0.000862 s⁻¹ and the on-rate constant (kon) is 518000 M⁻¹ s⁻¹.

B8: chAbF46-U8-HC5 (antibody, human IgG1)
heavy: not shown
light: DILMTQSPSSLTVSAGEKVTMSCKSSQSLLASGNQNNYLAWHQQKPGRSPKMLIIWASTRVSGVPDRFIGSGSGTDFTLTINSVQAEDLAVYYCQQSYSAPLTFGAGTKLELKRTVAAPSVFIFPPSDEQLKSGTASVVCLLNNFYPREAKVQWKVDNALQSGNSQESVTEQDSKDSTYSLSSTLTLSKADYEKHKVYACEVTHQGLSSPVTKSFNRGEC
In test [3], B8 came in with a Kd of 1.32 nM, a koff of 0.000678 s⁻¹ and a kon of 515000 M⁻¹ s⁻¹.

B9: chAbF46-U6-HC7 (antibody, human IgG1)
heavy: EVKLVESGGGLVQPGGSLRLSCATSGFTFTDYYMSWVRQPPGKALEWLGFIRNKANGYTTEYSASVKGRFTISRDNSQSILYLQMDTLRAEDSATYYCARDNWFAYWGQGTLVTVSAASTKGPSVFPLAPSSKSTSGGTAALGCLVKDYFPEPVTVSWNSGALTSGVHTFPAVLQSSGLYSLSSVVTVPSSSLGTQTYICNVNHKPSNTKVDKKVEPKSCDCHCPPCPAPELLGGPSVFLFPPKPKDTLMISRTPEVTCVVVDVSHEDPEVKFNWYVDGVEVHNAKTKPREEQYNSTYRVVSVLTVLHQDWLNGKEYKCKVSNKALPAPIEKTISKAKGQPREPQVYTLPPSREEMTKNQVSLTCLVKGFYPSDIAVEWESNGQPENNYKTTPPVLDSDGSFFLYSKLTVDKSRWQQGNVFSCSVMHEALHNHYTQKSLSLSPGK
light: DILMTQSPSSLTVSAGEKVTMSCKSSQSLLASGNQNNYLAWHQQKPGRSPKMLIIWASTRVSGVPDRFIGSGSGTDFTLTINSVQAEDLAVYYCQQSYSAPLTFGAGTKLELKRTVAAPSVFIFPPSDEQLKSGTASVVCLLNNFYPREAKVQWKVDNALQSGNSQESVTEQDSKDSTYSLSSTLTLSKADYEKHKVYACEVTHQGLSSPVTKSFNRGEC
In test [3], B9 gave a Kd of 1.63 nM, an off-rate (koff) of 0.000614 s⁻¹ and a kon of 376000 M⁻¹ s⁻¹.
